Data as given in PMC6265462.

Biological target: T1, Pho7-DBD (279-339) (Schizosaccharomyces pombe, UniProt O13658 279-339)
T1 sequence: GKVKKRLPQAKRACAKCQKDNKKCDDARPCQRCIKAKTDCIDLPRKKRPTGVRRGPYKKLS
Assay: crystal structure

B1: tgp1 crystal duplex (dsDNA)
DNA 1: TCCTTCGGACATTCAAATCA
DNA 2: GATTTGAATGTCCGAAGGAT
binding result: binds
